Molecular target: Ultramarine fluorescent protein
Assay: AUC

Ultramarine fluorescent protein
stoichiometry N: 2

— paper PMC10276540
